Assay: label from the status in PepcDB records

Row | Sequence | protein production
1 | MSALIDTWFLGCRAAATAVLYVLFAVVAGGAVSAARAATVAASAPAPVTVGSGKKAVRQGISLELLVKPTHAEDGFSAAVVEGAYADVSLKMTDAATGHPVTVMQPRVWIDLRKGTGDFREKQMACSDKVRTYLQGTLSFRPDIDLNSYFVLTLNNDASISVIDPIIGVAGYSQLYAMILLKRPGEDWVFSFDGKRLYVTMPKAGEVAEIDTDSLAVVRNIPAGAMPVRMAFQPDSRYLWVGNDSSDPARSGVTVIDPFSGTQAAFIQTGAGHHEIAFADDSRYAFVTNQQSGTLTIIDIQSLAPVKTLRLGDGPVSVAYSALSKCAHVVCEGDGNLLVVDGLSHEIISRKTFEPGFREVRFAPGDRWYFTVNGKNGQILVFDAAGNELLHSTVVAGRPEHVSFSTEFAYIRSLGTADVTLIPLAALGKAAILTPLVVSGGSRPPADSPLLPPTADPIVVTPEGNSVLIASPSDGAVVYYMEGMGVPMGSFKTYGRLPRAVNVINRQLRQNVPGVFSSRVKIPLAGTYDVAVLLDSPRIVQCFEFSADANPALQRLKTERPVMVEFVGSALRVEAGRESVVRFRVTDPVTHEPVADLRDLIVVTSLVPTGAWRQQLVSRPVGNGIYEVTFTARKVGIYSFNFAIPSLKVKLYQLAGMMIHAVETPAEAGSDVPAGQKKD | failed
2 | MSALRVTSPSVEYVQRPLGLDAAHPRLSWPMASAAPGRRQSAYQVRVASSAAGLSHPDVWDSGKVVSDDSVLVPYAGPPLKPRTRYFWSVRVWDADGGASEWSAPSWWETGLMGASQWSAKWISAPAPLTEAPSLEGSSWIWFPEGEPANSAPAATRWFRRTVDLPDDITGATLAISADNVYAVSVDGAEVARTDLEADNEGWRRPAVIDVLDHVHSGNNTLAVSASNASVGPAGWICVLVLTTASGEKKIFSDASWKSTDHEPADGWREPDFDDSGWPAAKVAAAWGAGPWGRVAPVASAANQLRHEFRLPHKKVSRARLYATALGLYEAHLNGRRVGRDQLAPGWTDYRKRVQYQTYDVTSSVRPGANALAAYVAPGWYAGNVGMFGPHQYGERPALLAQLEVEYADGTSERITSGPDWRAASGPIVSADLLSGETYDARKETAGWTSPGFDDRAWLAVRGADNDVPEQIVAQVDGPVRIAKELPARKVTEPKPGVFVLDLGQNMVGSVRLRVSGDAGTTVRLRHAEVLNPDGTIYTANLRSAAATDTYTLKGQGEETYEPRFTFHGFRYVEVTGFPGKPSTTSVTGRVMHTSAPFTFEFETNVPMLNKLHSNITWGQRGNFLSVPTDTPARDERLGWTGDINVFAPTAAYTMESARFLTKWLVDLRDAQTSDGAFTDVAPAVGNLGNGVAGWGDAGVTVPWALYQAYGDRQVLADALPSVHAWLRYLEKHSDGLLRPADGYGDWLNVSDETPKDVIATAYFAHSADLAARMATELGKDAAPYTDLFTRIRKAFQTAYVASDGKVKGDTQSAYVLTLSMNLVPDALRKAAADRLVALIEAKDWHLSTGFLGTPRLLPVLTDTGHTDVAYRLLHQRTFPSWGYPIDKGSTTMWERWDSIQPDGGFQTPEMNSFNHYAYGSVGEWMYANIAGIAPGRAGYRQVVIRPRPGGEVTSARATFASLHGPVSTRWQQRSGGFVLTCSVPPNTTAEVWIPADHPDRVQHTHGTFVRAEDGCAVFEVGSGSHRFTV | failed
3 | MSALSRWLLIPPVSARLSERYQGYRRHGASPFSAALGCLWTILAWIVFPLEHPRWQRIRDGHKALYPHINAARPRPLDPARYLIQTLWLVMISSTKERHEPRWRSFARLKDVRGRYHQWMDTLPERVRQKTTHLEKEKELGHLSNGARRFILGVIVTFSLILALICITQPFNPLSQFIFLLLLWGVALLVRRMPGRFSALMLIVLSLTVSCRYIWWRYTSTLNWDDPVSLVCGLILLFAETYAWIVLVLGYFQVVWPLNRQPVPLPKEMSQWPTVDIFVPTYNEDLNVVKNTIYASLGIDWPKDKLNIWILDDGGRESFRQFARHVGVHYIARATHEHAKAGNINNALKHAKGEFVAIFDCDHVPTRSFLQMTMGWFLKEKQLAMMQTPHHFFSPDPFERNLGRFRKTPNEGTLFYGLVQDGNDMWDATFFCGSCAVIRRKPLDEIGGIAVETVTEDAHTSLRLHRRGYTSAYMRIPQSAGLATESLSAHIGQRIRWARGMVQIFRLDNPLFGKGLKLAQRLCYLNAMFHFLSGIPRLIFLTAPLAFLLLHAYIIYAPALMIALFVIPHMVHASLTNSKIQGKYRHSFWSEIYETVLAWYIAPPTLVALINPHKGKFNVTAKGGLVEEKYVDWVISRPYIFLVLLNLLGVAAGVWRYYYGPENETLTVIVSLVWVFYNLVILGGAVAVSVESKQVRRAHRVEIAMPGAIAREDGHLFSCTVHDFSDGGLGIKINGQAQVLEGQKVNLLLKRGQQEYVFPTQVVRVTGNEVGLQLMPLTTKQHIDFVQCTFARADTWALWQDSFPEDKPLESLLDILKLGFRGYRHLAEFAPPSVKVIFRSLTALIAWIVSFIPRRPERQAAIQPSDRVMAQAQQ | failed
